Laboratory results reported in patent US20150376238A1 (University of Washington, published 2015).

Tests used:
[1] = target: H1 hemagglutinin (A/South Carolina/1/1918) (Influenza A virus A/South …, UniProt Q9WFX3 18-520); test: yeast surface display titration
[2] = target: H3 hemagglutinin (A/Hong Kong/1/1968) (Influenza A virus A/Hong Kong/1/1968 …, UniProt Q91MA7 27-521); test: yeast surface display titration
H3 hemagglutinin (A/Hong Kong/1/1968), sequence (Q91MA7 27-521 limits assumed): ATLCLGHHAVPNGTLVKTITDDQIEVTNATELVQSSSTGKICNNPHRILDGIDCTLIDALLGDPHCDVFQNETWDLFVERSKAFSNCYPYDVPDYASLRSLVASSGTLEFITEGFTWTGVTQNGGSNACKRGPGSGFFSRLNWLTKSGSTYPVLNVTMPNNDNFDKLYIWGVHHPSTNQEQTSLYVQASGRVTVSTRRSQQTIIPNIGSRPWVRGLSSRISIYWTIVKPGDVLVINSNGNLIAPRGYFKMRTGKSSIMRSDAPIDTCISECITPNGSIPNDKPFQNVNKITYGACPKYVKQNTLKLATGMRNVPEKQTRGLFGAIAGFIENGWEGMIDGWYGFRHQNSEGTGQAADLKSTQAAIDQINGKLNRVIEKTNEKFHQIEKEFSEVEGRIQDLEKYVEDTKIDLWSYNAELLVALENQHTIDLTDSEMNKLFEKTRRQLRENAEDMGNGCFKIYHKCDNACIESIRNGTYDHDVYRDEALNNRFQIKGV

H1 hemagglutinin (A/South Carolina/1/1918), sequence (Q9WFX3 18-520 limits assumed): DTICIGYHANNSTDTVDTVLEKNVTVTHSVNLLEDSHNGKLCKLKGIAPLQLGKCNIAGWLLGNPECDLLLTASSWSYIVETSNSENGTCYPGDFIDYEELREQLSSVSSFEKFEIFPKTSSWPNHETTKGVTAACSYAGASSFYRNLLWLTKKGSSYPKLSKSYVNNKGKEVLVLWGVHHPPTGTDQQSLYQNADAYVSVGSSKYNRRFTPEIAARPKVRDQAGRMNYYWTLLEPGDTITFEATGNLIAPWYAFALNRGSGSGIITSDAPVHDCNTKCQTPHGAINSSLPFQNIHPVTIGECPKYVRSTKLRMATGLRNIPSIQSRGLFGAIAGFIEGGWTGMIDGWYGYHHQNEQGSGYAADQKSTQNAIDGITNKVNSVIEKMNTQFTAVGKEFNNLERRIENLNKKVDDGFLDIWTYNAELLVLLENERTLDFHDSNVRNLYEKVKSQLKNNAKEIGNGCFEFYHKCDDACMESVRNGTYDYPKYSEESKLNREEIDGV

B1: 52alt1-3 (designed binder)
chain: GIVNVPNPNTTKYQQLARSAIAIYNNHQNAHLEFVENLNVKEQVSYGAMYYITLAATDDAGKKKIYKAKVGVVESAGWVGVEEFKLV
- binding result [1]: no binding
- Kd [2]: 3 nM
